We go through nine molecules from paper PMC4933465 (The Journal of Biological Chemistry, 2016).

Broadly, the IC50 is the concentration that inhibits the measured activity by half. Lower therefore signals inhibition by little substance. As usually defined, the koff is the rate constant with which the complex falls apart. In general, kon refers to a measure of how fast the partners come together.

B7: CXCL11 (ligand, UniProt O14625 22-94, looked up)
chain: FPMFKRGRCLCIGPGVKAVKVADIEKASIMYPSNNCDKIEVIITLKENKGQRCLNPKSKQARLIIKKVERKNF
notes: chemokine CXCL11; CXCL11 is not in the methods' list of chemokines made in E. coli
B8: CCL19 (ligand, UniProt Q99731 22-98, looked up)
chain: GTNDAEDCCLSVTQKPIPGYIVRNFHYLLIKDGCRVPAVVFTTLRGRQLCAPPDQPWVERIIQRLQRTSAKMKRRSS
notes: chemokine CCL19; source: E. coli, purified
B9: CCL7 (ligand)
chain: not shown
notes: chemokine CCL7; source: E. coli, purified

Holding throughout (conditions): both partners purified
For assay [1], the target named is T1, Link_TSG6 (recombinant Link module from human TSG-6) (human, UniProt P98066 36-133).
T1 construct: Link module of human TSG-6 (TNF-stimulated gene/protein 6); residues numbered as in the pre-protein; also called TSG-6 Link module
The assay is described as follows: SPR; Link_TSG6 amine-coupled to a C1 chip (800–1000 RU), chemokine as analyte; BIAcore 3000; 10 mM HEPES, 150 mM NaCl, 0.05% Tween 20, pH 7.4; 40 μl/min; 1:1 Langmuir model; apparent affinities.

The target of the assay “CXCL11” is B7. The assay is described as follows: ELISA; solid phase competition: chemokine (250 nM) coated on MaxiSorp plates, biotinylated heparin (25 ng/well) with Link_TSG6_T (0–1000 nM); 10 mM NaOAc, 150 mM NaCl, 2% Tween 20, pH 6.0, room temperature, 4 h; bound heparin detected. (ELISA stands for enzyme-linked immunosorbent assay.)
The assay “CCL19” concerns the target B8. Described as above.
The assay “CCL7” concerns the target B9. The description is as above.
A further assay concerns the target T2, CCL2 (UniProt P13500 24-99).
T2 construct: chemokine CCL2; source: E. coli, purified
The description is as above.

In assay [2] the target is T1, Link_TSG6 (recombinant Link module from …). The assay is described as follows: SPR; Link_TSG6 amine-coupled to a C1 chip (800–1000 RU), chemokine as analyte; BIAcore 3000; 10 mM HEPES, 150 mM NaCl, 0.05% Tween 20, pH 7.4; 40 μl/min; 1:1 Langmuir model; apparent affinities. This is another data set of the same source.
Assay [3] has the same target. As to the kind of experiment: plate binding assay on a collagen-coated surface, labeled streptavidin detection; wells coated with type I collagen (100 μg/ml); biotinylated chemokine (10, 50 or 200 nM) alone or pre-incubated 30 min at 37 °C with different molar ratios of Link_TSG6 in cPBS, then 1 h on the surface; streptavidin IRDye 800CW.

Sequence of CCL7 (P80098 24-99): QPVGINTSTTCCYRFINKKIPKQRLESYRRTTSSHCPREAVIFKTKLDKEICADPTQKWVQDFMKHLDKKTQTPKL
T2 sequence (P13500 24-99): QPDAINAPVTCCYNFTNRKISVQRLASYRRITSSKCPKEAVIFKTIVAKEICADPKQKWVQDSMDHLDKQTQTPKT

B1: CCL5 (ligand, UniProt P13501 24-91, looked up)
chain: SPYSSDTTPCCFAYIARPLPRAHIKEYFYTSGKCSNPAVVFVTRKNRQVCANPEKKWVREYINSLEMS
notes: chemokine CCL5; source: E. coli, purified
Turning to B1, the binding result in assay [1] was “binds”.

B2: Link_TSG6_T (K55A/K69A/K76A) (domain or fragment, human)
chain: GVYHREARSGKYKLTYAEAAAVCEFEGGHLATYAQLEAARAIGFHVCAAGWMAKGRVGYPIVKPGPNCGFGKTGIIDYGIRLNRSERWDAYCYNPHAK
notes: Link module of human TSG-6 with three lysines changed to alanine; residues numbered as in the pre-protein
As for B2, the IC50 worked out at 168 nM in the assay with CXCL11, 55 nM in the assay with CCL19, 159 nM with CCL7 and 84 nM in the assay with CCL2.

B3: CCL27 (ligand, UniProt Q9Y4X3 25-112, looked up)
chain: FLLPPSTACCTQLYRKPLSDKLLRKVIQVELQEADGDCHLQAFVLHLAQRSICIHPQNPSLSQWFEHQERKLHGTLPKLNFGMLRKMG
notes: chemokine CCL27; source: E. coli, purified
Take B3: in assay [2], the Kd is 85.2 nM, the koff worked out at 0.0023 s⁻¹ and the kon came to 27000 M⁻¹ s⁻¹.

B4: CCL27 K25A (ligand, UniProt Q9Y4X3 25-112, looked up)
chain: FLLPPSTACCTQLYRKPLSDKLLRAVIQVELQEADGDCHLQAFVLHLAQRSICIHPQNPSLSQWFEHQERKLHGTLPKLNFGMLRKMG
notes: chemokine CCL27 with K25A; also called CCL27 K25A mutant; source: E. coli, purified
As to B4, in assay [2], the Kd is 753 nM, the koff came to 0.0061 s⁻¹ and the kon stood at 8100 M⁻¹ s⁻¹.

B5: CCL21 (ligand, UniProt O00585 24-134, looked up)
chain: SDGGAQDCCLKYSQRKIPAKVVRSYRKQEPSLGCSIPAILFLPRKRSQAELCADPKELWVQQLMQHLDKTPSPQKPAQGCRKDRGASKTGKKGKGSKGCKRTERSQTPKGP
notes: chemokine CCL21; source: E. coli, purified
For B5, in assay [2], the Kd was 4.8 nM, the koff came to 0.0034 s⁻¹ and the kon worked out at 710000 M⁻¹ s⁻¹.

B6: Biotinylated CCL21 (ligand, UniProt O00585 24-134, looked up)
chain: SDGGAQDCCLKYSQRKIPAKVVRSYRKQEPSLGCSIPAILFLPRKRSQAELCADPKELWVQQLMQHLDKTPSPQKPAQGCRKDRGASKTGKKGKGSKGCKRTERSQTPKGP
modifications: biotin
notes: chemokine CCL21, biotinylated; also called biotinylated chemokine CCL21; source: E. coli, purified
For B6, the binding result in assay [3] is on record as “binds”.
On to B7, for which, in assay [2], the Kd came to 5.2 nM, the koff turned out to be 0.0013 s⁻¹ and the kon was 250000 M⁻¹ s⁻¹.
For B8 the same measures were 17.5 nM, 0.0028 s⁻¹ and 160000 M⁻¹ s⁻¹.
For the molecule B9, in assay [2], the Kd was found to be 18.4 nM, the koff was 0.0016 s⁻¹ and the kon came out at 87000 M⁻¹ s⁻¹.
